Laboratory results as given in patent US20240132603A1 (HARBOUR BIOMED US, published 2024).
Residue numbers refer to the chain shown, from its start. Numbers in names are those of the source.

B1: PR004664 (antibody, human IgG1, kappa, V domains shown)
VH: EVQLVESGGGLVKPGGSLRLSCAASGFTFSTYAMNWVRQAPGKGLEWVGRIRSKSNNYATYYADSVKDRFTISRDDSKSTLYLQMNSLKTEDTAVYYCVRGKENANYYAMDFWGQGTTVTVSS
VL: DIVMTQSPLSLPVTLGQPASISCRSSKSLLHSNGKIYLYWFQQRPGQSPRLLIYRMSNLASGVPDRFSGSGSGTDFTLKISRVEAEDVGVYYCMQHLEYPLTFGQGTKLEIKR
notes: PTM site-removed humanized variant of PR004128, IgG1 with DE mutation
B2: PR004667 (antibody, human IgG1, kappa, V domains shown)
VH: B1 VH with N104Q, A105G
VL: B1 VL with G34A
notes: as for B1
B3: PR004665 (antibody, human IgG1, kappa, V domains shown)
VH: B1 VH with N104Q, A105G
VL: B1 VL
notes: as for B1
B4: PR004666 (antibody, human IgG1, kappa)
heavy: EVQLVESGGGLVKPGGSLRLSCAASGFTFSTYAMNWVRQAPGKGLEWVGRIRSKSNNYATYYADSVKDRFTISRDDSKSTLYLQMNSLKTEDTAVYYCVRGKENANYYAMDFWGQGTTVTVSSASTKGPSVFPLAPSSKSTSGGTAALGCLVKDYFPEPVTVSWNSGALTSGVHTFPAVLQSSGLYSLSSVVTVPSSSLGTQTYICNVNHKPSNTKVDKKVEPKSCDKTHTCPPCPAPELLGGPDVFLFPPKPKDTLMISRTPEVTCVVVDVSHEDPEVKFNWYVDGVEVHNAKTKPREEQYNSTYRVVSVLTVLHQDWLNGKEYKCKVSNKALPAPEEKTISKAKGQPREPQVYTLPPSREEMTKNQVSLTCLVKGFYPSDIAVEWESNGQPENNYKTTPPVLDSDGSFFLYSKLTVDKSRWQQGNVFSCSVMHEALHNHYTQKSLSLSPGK
light: DIVMTQSPLSLPVTLGQPASISCRSSKSLLHSNAKIYLYWFQQRPGQSPRLLIYRMSNLASGVPDRFSGSGSGTDFTLKISRVEAEDVGVYYCMQHLEYPLTFGQGTKLEIKRTVAAPSVFIFPPSDEQLKSGTASVVCLLNNFYPREAKVQWKVDNALQSGNSQESVTEQDSKDSTYSLSSTLTLSKADYEKHKVYACEVTHQGLSSPVTKSFNRGEC
notes: as for B1
B5: PR004249 (antibody, human IgG1, kappa)
heavy: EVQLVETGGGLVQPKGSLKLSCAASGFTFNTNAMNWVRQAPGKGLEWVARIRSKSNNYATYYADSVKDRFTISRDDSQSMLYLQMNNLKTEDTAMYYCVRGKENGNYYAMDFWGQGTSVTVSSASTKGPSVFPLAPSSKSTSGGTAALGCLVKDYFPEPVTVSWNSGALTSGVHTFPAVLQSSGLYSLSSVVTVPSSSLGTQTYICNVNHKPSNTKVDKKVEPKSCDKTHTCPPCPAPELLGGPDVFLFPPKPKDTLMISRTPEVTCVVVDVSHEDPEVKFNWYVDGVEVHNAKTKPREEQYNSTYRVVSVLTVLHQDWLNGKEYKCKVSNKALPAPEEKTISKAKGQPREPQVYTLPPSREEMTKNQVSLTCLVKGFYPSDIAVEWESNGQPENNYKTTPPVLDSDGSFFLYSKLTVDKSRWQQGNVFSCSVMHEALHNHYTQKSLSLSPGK
light: DIVMTQAAPSVPVTPGESVSISCRSSKSLLHSNGNTYLYWFLQRPGQSPQLLIYRMSNLASGVPDRFSGSGSGTAFTLRISRVEAEDVGVYYCMQHLEYPLTFGAGTKLELKRTVAAPSVFIFPPSDEQLKSGTASVVCLLNNFYPREAKVQWKVDNALQSGNSQESVTEQDSKDSTYSLSSTLTLSKADYEKHKVYACEVTHQGLSSPVTKSFNRGEC
notes: PR004122 with S239D and I332E (DE) in the IgG1 constant region
B6: PR004251 (antibody, human IgG1, kappa)
heavy: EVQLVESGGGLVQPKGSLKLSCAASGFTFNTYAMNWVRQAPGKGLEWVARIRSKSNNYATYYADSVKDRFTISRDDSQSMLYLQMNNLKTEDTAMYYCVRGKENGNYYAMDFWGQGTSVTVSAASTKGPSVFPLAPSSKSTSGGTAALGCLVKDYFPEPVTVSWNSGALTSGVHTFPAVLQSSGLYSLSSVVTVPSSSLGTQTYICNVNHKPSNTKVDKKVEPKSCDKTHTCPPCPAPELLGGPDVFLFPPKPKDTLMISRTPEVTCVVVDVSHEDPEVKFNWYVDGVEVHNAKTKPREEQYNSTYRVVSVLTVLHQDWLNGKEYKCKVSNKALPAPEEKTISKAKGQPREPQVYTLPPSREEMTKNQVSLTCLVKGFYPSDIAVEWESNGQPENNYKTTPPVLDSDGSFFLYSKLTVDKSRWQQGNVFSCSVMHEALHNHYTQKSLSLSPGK
light: B5 light with N35K, T36I, L111I
notes: PR004128 with S239D and I332E (DE) in the IgG1 constant region
B7: PR004252 (antibody, human IgG1, kappa)
heavy: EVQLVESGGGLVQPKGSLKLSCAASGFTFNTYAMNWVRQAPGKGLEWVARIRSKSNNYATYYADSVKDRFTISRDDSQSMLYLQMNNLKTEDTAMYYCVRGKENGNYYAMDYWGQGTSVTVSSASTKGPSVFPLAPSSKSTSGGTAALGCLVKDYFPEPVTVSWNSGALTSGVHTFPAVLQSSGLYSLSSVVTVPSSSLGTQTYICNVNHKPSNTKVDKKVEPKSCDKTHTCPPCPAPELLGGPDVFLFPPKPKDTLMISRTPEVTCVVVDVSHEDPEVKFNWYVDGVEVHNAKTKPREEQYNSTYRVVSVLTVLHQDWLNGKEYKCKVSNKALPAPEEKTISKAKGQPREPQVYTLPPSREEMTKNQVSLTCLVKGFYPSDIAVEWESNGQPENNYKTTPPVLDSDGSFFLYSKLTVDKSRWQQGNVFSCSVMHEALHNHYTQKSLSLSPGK
light: B5 light with S26N, L111I
notes: PR004131 with S239D and I332E (DE) in the IgG1 constant region
B8: PR005750 (Fab, V domains shown)
VH: B1 VH
VL: B1 VL with G34A
notes: Fab form of the same variable region as PR004666
B9: PR005752 (Fab, V domains shown)
VH: B1 VH with N57Y, N104H, A105G
VL: B1 VL with G34A
B10: PR005754 (Fab, V domains shown)
VH: B1 VH with N57Y, N104I, A105G
VL: B1 VL with G34A
B11: PR005751 (Fab, V domains shown)
VH: B1 VH with N104H, A105G
VL: B1 VL with G34A
B12: PR005787 (Fab, V domains shown)
VH: B1 VH with N57Y, N104I, A105G, N106K
VL: B1 VL with G34A
B13: PR005753 (Fab, V domains shown)
VH: B1 VH with N104I, A105G
VL: B1 VL with G34A
B14: PR005763 (Fab, V domains shown)
VH: B1 VH with N57Y, N104H, A105G, N106K
VL: B1 VL with G34A

Each binder was assayed against T1, human CCR8 (human, UniProt P51685 1-355) (assay: FACS, CHO-K1-hCCR8 cells).
T1 construct: whole, on cells; construct used for the overexpressing cell lines is not described; also called hCCR8
T1 sequence (P51685 whole entry): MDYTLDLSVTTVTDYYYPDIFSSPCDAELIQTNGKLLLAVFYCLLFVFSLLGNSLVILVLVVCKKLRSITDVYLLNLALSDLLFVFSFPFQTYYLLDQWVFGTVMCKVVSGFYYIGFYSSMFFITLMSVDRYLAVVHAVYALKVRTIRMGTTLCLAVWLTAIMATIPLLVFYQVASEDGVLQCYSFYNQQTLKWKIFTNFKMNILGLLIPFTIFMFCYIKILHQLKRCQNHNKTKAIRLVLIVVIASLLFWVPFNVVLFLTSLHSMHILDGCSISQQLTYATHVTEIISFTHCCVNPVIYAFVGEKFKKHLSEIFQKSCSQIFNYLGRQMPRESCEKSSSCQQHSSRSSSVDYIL
Procedure: (§1) Cells overexpressing human CCR8 were digested with pancreatin, counted and resuspended to a cell density of 1E6 cells/mL. The cell suspension was added to a 96-well V-bottom plate at 100 μL/well and centrifuged at 300 g for 5 min, and the supernatant was discarded. The anti-CCR8 antibodies provided herein was used as a primary antibody and diluted in a 5-fold gradient with an FACS buffer (DPBS containing 2% FBS) from 200 nM. The diluted primary antibody was added at 100 μL/well to resuspend the cells, and the mixture was incubated at 4° C. for 1 h. The plate was washed twice with DPBS and centrifuged at 300×g for 5 min, and the supernatant was discarded. The secondary antibody diluted in a 1:1000 ratio with an FACS buffer was added at 100 μL/well to suspend the cells, and the mixture was incubated at 4° C. for 40 min. The plate was washed twice with DPBS and centrifuged at 300×g for 5 min, and the supernatant was discarded. DPBS was added at 200 μL/well to suspend the cells, and the mixture was loaded on an FACS machine for analysis.

Q: How did the EC50 turn out when B1 was run?
A: 0.365 nM

Q: B2 was tested. Which EC50 did it give?
A: 0.279 nM

Q: How did the EC50 turn out when B3 was run?
A: 0.341 nM

Q: B4 was tested. Which EC50 did it give?
A: 0.466 nM

These binders were tested against T1, human CCR8 (assay: FACS, HEK293-hCCR8 cells).
Procedure: as §1

Q: For B5, which EC50 is on record?
A: 1.22 nM

Q: B6 was tested. Which EC50 did it give?
A: 3.69 nM

Q: Which EC50 does the source give for B7 here?
A: 0.98 nM

Target: T1, human CCR8
Test: FACS, CHO-K1-hCCR8 cells
Remark: another data set of the same source
Procedure: as §1

Q: B4 was tested. Which EC50 did it give?
A: 0.44 nM

The binders below were run against T1, human CCR8 (assay: FACS, CHO-K1-hCCR8 cells, Fab).
Procedure: as §1

Q: Which EC50 does the source give for B8 here?
A: 1.56 nM

Q: How did the EC50 turn out when B9 was run?
A: 0.69 nM

Q: For B10, which EC50 is on record?
A: 0.84 nM

Q: With B11 as the binder, how does the EC50 read?
A: 1.1 nM

Q: B12 was tested. Which EC50 did it give?
A: 0.74 nM

Q: How did the EC50 turn out when B13 was run?
A: 1.19 nM

Q: B14 was tested. Which EC50 did it give?
A: 0.62 nM

The binders below were run against T2, cynomolgus monkey CCR8 (cynomolgus monkey, UniProt G7NYJ2 1-355) (assay: FACS, CHO-K1-CynoCCR8 cells).
T2 construct: whole, on cells; also called CynoCCR8
T2 sequence (G7NYJ2 entry or part of it): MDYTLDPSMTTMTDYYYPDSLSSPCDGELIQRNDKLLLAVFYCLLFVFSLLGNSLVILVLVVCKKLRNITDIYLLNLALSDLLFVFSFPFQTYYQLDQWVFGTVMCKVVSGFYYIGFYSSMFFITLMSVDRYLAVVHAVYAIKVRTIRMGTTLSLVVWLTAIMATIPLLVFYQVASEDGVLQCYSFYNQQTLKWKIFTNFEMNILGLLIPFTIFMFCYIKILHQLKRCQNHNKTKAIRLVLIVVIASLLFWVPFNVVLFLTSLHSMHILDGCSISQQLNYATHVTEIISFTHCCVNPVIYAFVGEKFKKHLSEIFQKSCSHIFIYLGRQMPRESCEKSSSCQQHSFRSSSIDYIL
Procedure: as §1, with “cynomolgus monkey CCR8, CHO-K1-CynoCCR8,” for “human CCR8”

Q: For B5, which EC50 is on record?
A: 3.42 nM

Q: For B6, which EC50 is on record?
A: 8.26 nM

Q: Which EC50 does the source give for B7 here?
A: 3.32 nM

Target: T2, cynomolgus monkey CCR8
Test: FACS, CHO-K1-CynoCCR8 cells
Remark: another data set of the same source
Procedure: as §1, with “cynomolgus monkey CCR8, CHO-K1-CynoCCR8,” for “human CCR8”

Q: B4 was tested. Which EC50 did it give?
A: 0.37 nM
